According to patent US20190322724:

Tested on: blocking anti-c-Src monoclonal antibodies

Substance	TIMP-2 tyrosine phosphorylation in HT1080 CM (pulldown, anti-phos-Tyr immunoblot)	TIMP-2 tyrosine phosphorylation in SYF+c-Src CM (pulldown, anti-phos-Tyr immunoblot)
secreted c-Src (e-Src) in conditioned media of HT1080 human fibrosarcoma cells	TIMP-2 tyrosine phosphorylation was abolished	
secreted c-Src (e-Src) in conditioned media of SYF+c-Src cells		TIMP-2 tyrosine phosphorylation was abolished
